According to publication PMC6506218:

Biological target: full-length AgrC-I Q305A in lipid nanodiscs (S. aureus)
Test: fluorescence polarisation

| Substance | Kd [µM] |
| --- | --- |
| AIP-I (peptide) | 0.056 |
| AIP-II (peptide) | 0.151 |
